Results: US20220041658A1 (PROTAGONIST THERAPEUTICS, published 2022)
Positions of bridges follow the written chain, without caps; N, C: chain ends. Non-standard residues stand in square brackets, D forms with d. Trp(7-Me) = Cc1cccc2c(C[C@H](N)C(=O)O)c[nH]c12; 2Nal = N[C@@H](Cc1ccc2ccccc2c1)C(=O)O; d2Nal = N[C@H](Cc1ccc2ccccc2c1)C(=O)O; AEF = NCCOc1ccc(C[C@H](N)C(=O)O)cc1; αMeF = C[C@](N)(Cc1ccccc1)C(=O)O; Cit = NC(=O)NCCC[C@H](N)C(=O)O; Pen = CC(C)(S)[C@H](N)C(=O)O; αMeK = C[C@](N)(CCCCN)C(=O)O; Dab = NCC[C@H](N)C(=O)O; Abu = CC[C@H](N)C(=O)O; Aib = CC(C)(N)C(=O)O; Sar = CNCC(=O)O

T1: interleukin-23 receptor (IL-23R) (human, UniProt Q5VWK5 24-629)
T1 sequence (looked up): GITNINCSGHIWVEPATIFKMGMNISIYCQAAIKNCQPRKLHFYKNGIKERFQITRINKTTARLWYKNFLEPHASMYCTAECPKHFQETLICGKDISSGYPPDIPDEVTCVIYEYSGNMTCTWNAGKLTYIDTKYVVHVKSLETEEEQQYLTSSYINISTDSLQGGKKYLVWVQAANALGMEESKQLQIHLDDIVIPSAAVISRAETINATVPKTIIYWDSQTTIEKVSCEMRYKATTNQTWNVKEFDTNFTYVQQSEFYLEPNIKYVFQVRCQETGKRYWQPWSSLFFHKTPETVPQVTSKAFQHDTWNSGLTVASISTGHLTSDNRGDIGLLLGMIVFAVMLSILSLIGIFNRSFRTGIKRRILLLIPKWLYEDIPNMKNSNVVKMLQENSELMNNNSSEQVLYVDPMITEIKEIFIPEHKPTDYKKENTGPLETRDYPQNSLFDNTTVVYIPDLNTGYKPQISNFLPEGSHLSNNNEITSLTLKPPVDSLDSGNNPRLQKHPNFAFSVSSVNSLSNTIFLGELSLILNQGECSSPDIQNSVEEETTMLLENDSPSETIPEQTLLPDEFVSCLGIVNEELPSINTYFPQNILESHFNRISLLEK


target: T1, interleukin-23 receptor (IL-23R); test: cell-based or functional assay

| Binder | pStat3 HTRF IC50 |
| --- | --- |
| Ac-[Pen]NT[Trp(7-Me)][Cit][Pen][AEF][2Nal][αMeK]K(Ac)N[Aib][dF]-NH2 (disulfide 1-6 (inferred)) [Peptide of SEQ ID NO: 346] | 0.784 nM |
| XNTXQXXXXKNX (Ac-[Pen]-NT-[W(4-OMe)]-Q-[Pen]-Phe[4-(2-aminoethoxy)]-[2-Nal]-[a-MeLys]-[Lys(Ac)]-N-[bA]-NH2; Pen-Pen disulfide) [Peptide of SEQ ID NO: 229] | 23.1 nM |
| Ac-[Pen]PT[Trp(7-Me)]K(Ac)[Pen][AEF][2Nal][αMeK]K(Ac)N[dL]-NH2 (disulfide 1-6 (inferred)) [Peptide of SEQ ID NO: 333] | 9.3 nM |
| Ac-[Pen]RT[Trp(7-Me)]K(Ac)[Pen][AEF][2Nal][αMeK]K(Ac)N[dL]-NH2 (disulfide 1-6 (inferred)) [Peptide of SEQ ID NO: 336] | 1.49 nM |
| XNTXQXXXXGPX (Ac-[Pen]-NT-[W(7-Me)]-Q-[Pen]-Phe[4-(2-aminoethoxy)]-[2-Nal]-[a-MeLeu]-G-P-[bA]-NH2; Pen-Pen disulfide) [Peptide of SEQ ID NO: 219] | 93.7 nM |
| XQTXQCXXXENX (Ac-Abu-Q-T-[W(7-Me)]-Q-C-Phe[4-(2-aminoethoxy)]-[2-Nal]-[THP]-E-N-[bA]-NH2; Abu-Cys thioether) [Peptide of SEQ ID NO: 204] | 1.75 nM |
| Ac-[Pen]AT[Trp(7-Me)]K(Ac)[Pen][AEF][2Nal][αMeK]K(Ac)N[dL]-NH2 (disulfide 1-6 (inferred)) [Peptide of SEQ ID NO: 328] | 0.78 nM |
| XNTXXXXXXKNL (Ac-[Pen]-N-T-[W(7-Me)]-[Lys(bAla)]-[Pen]-Phe[4-(2-aminoethoxy)]-[2-Nal]-[a-MeLys]-[Lys(Ac)]-N-[(D)Leu]-NH2; Pen-Pen disulfide) [Peptide of SEQ ID NO: 321] | 1.04 nM |
| Ac-[Pen]LT[Trp(7-Me)]K(Ac)[Pen][AEF][2Nal][αMeK]K(Ac)N[dL]-NH2 (disulfide 1-6 (inferred)) [Peptide of SEQ ID NO: 332] | 1.06 nM |
| XNTXKXXXXKNK (Ac-[Pen]-N-T-[W(2-Me)]-[Lys(Ac)]-[Pen]-Phe[4-(2-aminoethoxy)]-[2-Nal]-[a-MeLys]-[Lys(Ac)]-N-[(D)Lys]-NH2; Pen-Pen disulfide) [Peptide of SEQ ID NO: 351] | 11.3 nM |
| Ac-[Pen]NT[Trp(7-Me)][Cit][Pen][AEF][2Nal][αMeK]K(Ac)N[Aib]G-NH2 (disulfide 1-6 (inferred)) [Peptide of SEQ ID NO: 341] | 0.934 nM |
| Ac-[Pen]K(Ac)T[Trp(7-Me)]K(Ac)[Pen][AEF][2Nal][αMeK]K(Ac)N[dL]-NH2 (disulfide 1-6 (inferred)) [Peptide of SEQ ID NO: 330] | 1.38 nM |
| Ac-[Pen][Dab](Ac)T[Trp(7-Me)]K(Ac)[Pen][AEF][2Nal][αMeK]K(Ac)N[dL]-NH2 (disulfide 1-6 (inferred)) [Peptide of SEQ ID NO: 335] | 0.567 nM |
| Ac-[Pen][Cit]T[Trp(7-Me)]K(Ac)[Pen][AEF][2Nal][αMeK]K(Ac)N[dL]-NH2 (disulfide 1-6 (inferred)) [Peptide of SEQ ID NO: 331] | 0.834 nM |
| Ac-[Pen]NT[Trp(7-Me)][Cit][Pen][AEF][2Nal][αMeK]K(Ac)N[Aib][dR]-NH2 (disulfide 1-6 (inferred)) [Peptide of SEQ ID NO: 345] | 0.639 nM |
| XQTXQXXXXKNX (Ac-[Pen]-Q-T-[W(7-Me)]-Q-[Pen]-Phe[4-(2-aminoethoxy)]-[2-Nal]-[a-MeLys]-[Lys(Ac)]-N-[bA]-NH2; Pen-Pen disulfide) [Peptide of SEQ ID NO: 237] | 3.39 nM |
| Ac-[dR][Abu]QT[Trp(7-Me)]K(Ac)C[AEF][2Nal][αMeK]K(Ac)N[dK][Sar]-NH2 (thioether 2-7 (inferred)) [Peptide of SEQ ID NO: 323] | 5.33 nM |
| XNTXQXXXXKNX (Ac-[Pen]-NT-[W(2,5,7-tritBu)]-Q-[Pen]-Phe[4-(2-aminoethoxy)]-[2-Nal]-[a-MeLys]-[Lys(Ac)]-N-[bA]-NH2; Pen-Pen disulfide) [Peptide of SEQ ID NO: 233] | > 1 µM |
| XNTXQXXXXGPX (Ac-[Pen]-NT-[W(7-Me)]-Q-[Pen]-Phe[4-(2-aminoethoxy)]-[2-Nal]-[a-MeLeu]-G-[(D)Pro]-[bA]-NH2; Pen-Pen disulfide) [Peptide of SEQ ID NO: 220] | 195 nM |
| Ac-[Pen]NT[Trp(7-Me)][Cit][Pen][AEF][2Nal][αMeK]K(Ac)N[Sar]-NH2 (disulfide 1-6 (inferred)) [Peptide of SEQ ID NO: 339] | 6.3 nM |
| Ac-[Pen]NT[Trp(7-Me)][Cit][Pen][AEF][2Nal][αMeK]K(Ac)N[Aib][d2Nal]-NH2 (disulfide 1-6 (inferred)) [Peptide of SEQ ID NO: 348] | 5.02 nM |

Results, then the binder that gave them:

| pStat3 HTRF IC50 | Binder |
| --- | --- |
| 0.637 nM | Ac-[Pen]NT[Trp(7-Me)][Cit][Pen][AEF][2Nal][αMeK]K(Ac)N[Aib][dY]-NH2 (disulfide 1-6 (inferred)) [Peptide of SEQ ID NO: 347] |
| 0.664 nM | Ac-[Pen]NT[Trp(7-Me)][Cit][Pen][AEF][2Nal][αMeK]K(Ac)N[Aib]A-NH2 (disulfide 1-6 (inferred)) [Peptide of SEQ ID NO: 342] |
| 41.8 nM | XNTXKXXXXKNL (Ac-[Pen]-[(D)Asn]-T-[W(7-Me)]-[Lys(Ac)]-[Pen]-Phe[4-(2-aminoethoxy)]-[2-Nal]-[a-MeLys]-[Lys(Ac)]-N-[(D)Leu]-NH2; Pen-Pen disulfide) [Peptide of SEQ ID NO: 338] |
| 0.724 nM | Ac-[Pen]NT[Trp(7-Me)][Cit][Pen][AEF][2Nal][αMeK]K(Ac)N[Aib][dK]-NH2 (disulfide 1-6 (inferred)) [Peptide of SEQ ID NO: 344] |
| 0.648 nM | XNTXXXXXXKNL (Ac-[Pen]-N-T-[W(7-Me)]-[Lys(Aib)]-[Pen]-Phe[4-(2-aminoethoxy)]-[2-Nal]-[a-MeLys]-[Lys(Ac)]-N-[(D)Leu]-NH2; Pen-Pen disulfide) [Peptide of SEQ ID NO: 322] |
| 1.9 nM | XNTXXXXXXKNL (not fully specified; Ac-[Pen]-N-T-[W(7-Me)]-[Lys(benzyl)]-[Pen]-Phe[4-(2-aminoethoxy)]-[2-Nal]-[a-MeLys]-[Lys(Ac)]-N-[(D)Leu]-NH2; Pen-Pen disulfide) [Peptide of SEQ ID NO: 318] |
| 1.43 nM | Ac-[Pen]NT[Trp(7-Me)][Cit][Pen][AEF][2Nal][αMeK]K(Ac)N[Aib]R-NH2 (disulfide 1-6 (inferred)) [Peptide of SEQ ID NO: 343] |
| 0.77 nM | Ac-[Pen]GT[Trp(7-Me)]K(Ac)[Pen][AEF][2Nal][αMeK]K(Ac)N[dL]-NH2 (disulfide 1-6 (inferred)) [Peptide of SEQ ID NO: 329] |
| 0.714 nM | XNTXXXXXXKNL (Ac-[Pen]-N-T-[W(7-Me)]-[Lys(trifluoropropionic)]-[Pen]-Phe[4-(2-aminoethoxy)]-[2-Nal]-[a-MeLys]-[Lys(Ac)]-N-[(D)Leu]-NH2; Pen-Pen disulfide) [Peptide of SEQ ID NO: 319] |
| 18.4 nM | Ac-[dR][Abu]QT[Trp(7-Me)]K(Ac)C[AEF][2Nal][αMeK]K(Ac)N-NH2 (thioether 2-7 (inferred)) [Peptide of SEQ ID NO: 326] |
| 12.7 nM | Ac-[dR][Abu]QT[Trp(7-Me)]K(Ac)C[AEF][2Nal][αMeK]K(Ac)N[αMeF]-NH2 (thioether 2-7 (inferred)) [Peptide of SEQ ID NO: 327] |
| 25.7 nM | XNTXQXXXXKNX (Ac-[Pen]-NT-[W(6-Cl)]-Q-[Pen]-Phe[4-(2-aminoethoxy)]-[2-Nal]-[a-MeLys]-[Lys(Ac)]-N-[bA]-NH2; Pen-Pen disulfide) [Peptide of SEQ ID NO: 228] |
| 5.85 nM | XNTXQXXXXKNX (Ac-[Pen]-NT-[W(4-Me)]-Q-[Pen]-Phe[4-(2-aminoethoxy)]-[2-Nal]-[a-MeLys]-[Lys(Ac)]-N-[bA]-NH2; Pen-Pen disulfide) [Peptide of SEQ ID NO: 231] |
| 5.02 nM | XNTXQXXXXKSX (Ac-[Pen]-NT-[W(7-Me)]-Q-[Pen]-Phe[4-(2-aminoethoxy)]-[2-Nal]-[a-MeLeu]-[Lys(Ac)]-[(D)Ser]-[bA]-NH2; Pen-Pen disulfide) [Peptide of SEQ ID NO: 222] |
| 178 nM | XNTXQXXXXKPX (Ac-[Pen]-NT-[W(7-Me)]-Q-[Pen]-Phe[4-(2-aminoethoxy)]-[2-Nal]-[a-MeLeu]-[Lys(Ac)]-P-[bA]-NH2; Pen-Pen disulfide) [Peptide of SEQ ID NO: 211] |
